Source: US11306156

Columns and labels:
[1] = molecular target: D3H44 light chain Q124E_S176L_T180E, N-terminal HA or FLAG tag; assay: LCCA, L1:L2 DNA 1:9, SPR of light chain tags; competing light chain m12
[2] = molecular target: D3H44 light chain Q124E_S176L_T180E, N-terminal HA or FLAG tag; assay: LCCA, L1:L2 DNA 1:3, SPR of light chain tags; competing light chain m12
[3] = molecular target: D3H44 light chain Q124R_Q160K_T178R, N-terminal HA or FLAG tag; assay: LCCA, L1:L2 DNA 1:3, SPR of light chain tags; competing light chain m18
[4] = molecular target: D3H44 light chain Q124E_V133E, N-terminal HA or FLAG tag; assay: LCCA, L1:L2 DNA 1:9, SPR of light chain tags; competing light chain m14
[5] = molecular target: D3H44 light chain Q124R_T178R, N-terminal HA or FLAG tag; assay: LCCA, L1:L2 DNA 1:9, SPR of light chain tags; competing light chain m19
[6] = molecular target: D3H44 light chain Q124R_T178R, N-terminal HA or FLAG tag; assay: LCCA, L1:L2 DNA 1:3, SPR of light chain tags; competing light chain m19
[7] = molecular target: D3H44 light chain Q124R_Q160K_T178R, N-terminal HA or FLAG tag; assay: LCCA, L1:L2 DNA 1:9, SPR of light chain tags; competing light chain m18
[8] = molecular target: D3H44 light chain Q124E_V133E, N-terminal HA or FLAG tag; assay: LCCA, L1:L2 DNA 1:3, SPR of light chain tags; competing light chain m14
[9] = molecular target: D3H44 light chain Q124R, N-terminal HA or FLAG tag; assay: LCCA, L1:L2 DNA 1:3, SPR of light chain tags; competing light chain m18
[10] = molecular target: D3H44 light chain Q124E_V133E, N-terminal HA or FLAG tag; assay: LCCA, L1:L2 DNA 1:9, SPR of light chain tags; competing light chain m17
[11] = molecular target: D3H44 light chain Q124E_V133E, N-terminal HA or FLAG tag; assay: LCCA, L1:L2 DNA 1:3, SPR of light chain tags; competing light chain m17
[12] = molecular target: D3H44 light chain Q124R, N-terminal HA or FLAG tag; assay: LCCA, L1:L2 DNA 1:9, SPR of light chain tags; competing light chain m18
[13] = molecular target: D3H44 light chain T178R, N-terminal HA or FLAG tag; assay: LCCA, L1:L2 DNA 1:3, SPR of light chain tags; competing light chain m13
[14] = molecular target: D3H44 light chain Q124K_T178R, N-terminal HA or FLAG tag; assay: as above
[15] = molecular target: D3H44 light chain Q124R_Q160K_T178R, N-terminal HA or FLAG tag; assay: as above
[16] = molecular target: D3H44 light chain Q124R_T178R, N-terminal HA or FLAG tag; assay: as above
[17] = molecular target: D3H44 light chain Q124E_Q160E_T180E, N-terminal HA or FLAG tag; assay: LCCA, L1:L2 DNA 1:3, SPR of light chain tags; competing light chain m16
[18] = molecular target: D3H44 light chain Q124E_Q160E_T180E, N-terminal HA or FLAG tag; assay: LCCA, L1:L2 DNA 1:9, SPR of light chain tags; competing light chain m12
[19] = molecular target: D3H44 light chain Q124E_Q160E_T180E, N-terminal HA or FLAG tag; assay: LCCA, L1:L2 DNA 1:3, SPR of light chain tags; competing light chain m12
[20] = molecular target: D3H44 light chain Q124E_T180E, N-terminal HA or FLAG tag; assay: as above
[21] = molecular target: D3H44 light chain Q124E_Q160E_T180E, N-terminal HA or FLAG tag; assay: LCCA, L1:L2 DNA 1:3, SPR of light chain tags; competing light chain m15
[22] = molecular target: D3H44 light chain Q124E_T180E, N-terminal HA or FLAG tag; assay: as above
[23] = molecular target: D3H44 light chain Q124K_T178R, N-terminal HA or FLAG tag; assay: LCCA, L1:L2 DNA 1:9, SPR of light chain tags; competing light chain m11
[24] = molecular target: D3H44 light chain Q124R_T178K, N-terminal HA or FLAG tag; assay: as above
[25] = molecular target: D3H44 light chain Q124R_T178R, N-terminal HA or FLAG tag; assay: as above
[26] = molecular target: D3H44 light chain Q124E_Q160E_T180E, N-terminal HA or FLAG tag; assay: LCCA, L1:L2 DNA 1:9, SPR of light chain tags; competing light chain m15
[27] = molecular target: D3H44 light chain Q124E_T180E, N-terminal HA or FLAG tag; assay: LCCA, L1:L2 DNA 1:3, SPR of light chain tags; competing light chain m10
[28] = molecular target: D3H44 light chain Q124K_T178R, N-terminal HA or FLAG tag; assay: LCCA, L1:L2 DNA 1:3, SPR of light chain tags; competing light chain m11
[29] = molecular target: D3H44 light chain Q124R_T178K, N-terminal HA or FLAG tag; assay: as above
[30] = molecular target: D3H44 light chain Q124R_T178R, N-terminal HA or FLAG tag; assay: as above
[31] = molecular target: D3H44 light chain Q124E_T180E, N-terminal HA or FLAG tag; assay: LCCA, L1:L2 DNA 1:3, SPR of light chain tags; competing light chain m14
[32] = molecular target: D3H44 light chain Q124E_Q160E_T180E, N-terminal HA or FLAG tag; assay: LCCA, L1:L2 DNA 1:9, SPR of light chain tags; competing light chain m16
[33] = molecular target: D3H44 light chain T178R, N-terminal HA or FLAG tag; assay: LCCA, L1:L2 DNA 1:9, SPR of light chain tags; competing light chain m11
[34] = molecular target: D3H44 light chain Q124E_Q160E_T180E, N-terminal HA or FLAG tag; assay: LCCA, L1:L2 DNA 1:9, SPR of light chain tags; competing light chain m10
[35] = molecular target: D3H44 light chain Q124R_Q160K_T178R, N-terminal HA or FLAG tag; assay: LCCA, L1:L2 DNA 1:3, SPR of light chain tags; competing light chain m20
[36] = molecular target: D3H44 light chain Q124E_Q160E_T180E, N-terminal HA or FLAG tag; assay: LCCA, L1:L2 DNA 1:3, SPR of light chain tags; competing light chain m10
[37] = molecular target: D3H44 light chain T178R, N-terminal HA or FLAG tag; assay: LCCA, L1:L2 DNA 1:3, SPR of light chain tags; competing light chain m11
[38] = molecular target: D3H44 light chain Q124E_Q160E_T178E, N-terminal HA or FLAG tag; assay: LCCA, L1:L2 DNA 1:3, SPR of light chain tags; competing light chain m14

D3H44 Fab heavy chain L143E_K145T_Q179E_S188L, C-terminal ABD2-His6 tag
H1L1:H1L2 normalized median ratio [1]: 10 share of 100
H1L1:H1L2 normalized median ratio [2]: 13 share of 100
H1L1:H1L2 normalized median ratio [3]: 89 share of 100
H1L1:H1L2 normalized median scalar value ln(r1/f1) [3]: 2.06
H1L1:H1L2 normalized median ratio [4]: 13 share of 100
H1L1:H1L2 normalized median ratio [5]: 90 share of 100
H1L1:H1L2 normalized median scalar value ln(r1/f1) [5]: 2.25
H1L1:H1L2 normalized median ratio [6]: 87 share of 100
H1L1:H1L2 normalized median scalar value ln(r1/f1) [6]: 1.9
H1L1:H1L2 normalized median ratio [7]: 87 share of 100
H1L1:H1L2 normalized median scalar value ln(r1/f1) [7]: 1.86
H1L1:H1L2 normalized median ratio [8]: 11 share of 100

D3H44 Fab heavy chain L143R, C-terminal ABD2-His6 tag
H2L2:H2L1 normalized median ratio [3]: 4 share of 100
H2L2:H2L1 normalized median ratio [9]: 4 share of 100
H2L2:H2L1 normalized median ratio [4]: 93 share of 100
H2L2:H2L1 normalized median ratio [10]: 74 share of 100
H2L2:H2L1 normalized median ratio [11]: 96 share of 100
H2L2:H2L1 normalized median ratio [7]: 7 share of 100
H2L2:H2L1 normalized median ratio [12]: 26 share of 100
H2L2:H2L1 normalized median ratio [8]: 96 share of 100

D3H44 Fab heavy chain Q179K, C-terminal ABD2-His6 tag
H2L2:H2L1 normalized median ratio [13]: 4 share of 100
H2L2:H2L1 normalized median ratio [14]: 4 share of 100
H2L2:H2L1 normalized median ratio [15]: 4 share of 100
H2L2:H2L1 normalized median ratio [16]: 4 share of 100
H2L2:H2L1 normalized median ratio [17]: 89 share of 100
H2L2:H2L1 normalized median ratio [18]: 90 share of 100
H2L2:H2L1 normalized median ratio [19]: 88 share of 100
H2L2:H2L1 normalized median ratio [20]: 96 share of 100
H2L2:H2L1 normalized median ratio [2]: 96 share of 100
H2L2:H2L1 normalized median ratio [21]: 92 share of 100
H2L2:H2L1 normalized median ratio [22]: 96 share of 100
H2L2:H2L1 normalized median ratio [23]: 10 share of 100
H2L2:H2L1 normalized median ratio [24]: 7 share of 100
H2L2:H2L1 normalized median ratio [25]: 10 share of 100
H2L2:H2L1 normalized median ratio [26]: 90 share of 100
H2L2:H2L1 normalized median ratio [27]: 96 share of 100
H2L2:H2L1 normalized median ratio [6]: 4 share of 100
H2L2:H2L1 normalized median ratio [28]: 8 share of 100
H2L2:H2L1 normalized median ratio [29]: 11 share of 100
H2L2:H2L1 normalized median ratio [30]: 12 share of 100
H2L2:H2L1 normalized median ratio [31]: 96 share of 100
H2L2:H2L1 normalized median ratio [32]: 93 share of 100

D3H44 Fab heavy chain S186K, C-terminal ABD2-His6 tag
H2L2:H2L1 normalized median ratio [13]: 4 share of 100
H2L2:H2L1 normalized median ratio [15]: 3 share of 100
H2L2:H2L1 normalized median ratio [16]: 6 share of 100
H2L2:H2L1 normalized median ratio [17]: 92 share of 100
H2L2:H2L1 normalized median ratio [1]: 91 share of 100
H2L2:H2L1 normalized median ratio [20]: 94 share of 100
H2L2:H2L1 normalized median ratio [2]: 96 share of 100
H2L2:H2L1 normalized median ratio [33]: 13 share of 100
H2L2:H2L1 normalized median ratio [34]: 87 share of 100
H2L2:H2L1 normalized median ratio [35]: 1 share of 100
H2L2:H2L1 normalized median ratio [5]: 9 share of 100
H2L2:H2L1 normalized median ratio [36]: 91 share of 100
H2L2:H2L1 normalized median ratio [27]: 96 share of 100
H2L2:H2L1 normalized median ratio [6]: 4 share of 100
H2L2:H2L1 normalized median ratio [37]: 9 share of 100
H2L2:H2L1 normalized median ratio [29]: 8 share of 100
H2L2:H2L1 normalized median ratio [38]: 99 share of 100
H2L2:H2L1 normalized median ratio [31]: 97 share of 100
